Assay [1] deals with T1, Low-density lipoprotein receptor-related protein 6 (LRP6), human, on cells (human, UniProt O75581 20-1613). Put plainly: cell-based or functional assay.
Assay [2] has as its target T1, Low-density lipoprotein …. Put plainly: apparent KD, flow cytometry on HEK293 cells that express LRP6, curve fit. How it is done: FIGS. 7A-7E depict the results illustrating characterization of anti-LRP6 scFvs and derived bsAbs. FIG. 7A depicts the results of anti-LRP6 scFv-phage screening by flow cytometry analysis. Individual scFv-phage clones were separately amplified from the 3rd round panning output against LRP6E1E2 or LRP6E3E4 domain. scFv-phage particles were incubated with parental HEK293 or LRP6-transfected HEK293 cells and detected by biotinylated anti-M13 IgG and PE-labeled streptavidin. Relative MFI values (folds of phage binding to LRP6+ cells against LRP6− cells) were plotted on a graph. FIGS. 7B and 7C depict the results of flow cytometry analysis for binding kinetics of E34N19 (B) or E12N21 (C) scFv-Fc to HEK293 cells. The apparent KD was calculated based on the non-linear curve fittings by Prism 5 program. FIG. 7D depicts the results of cell-binding analysis of mono- or bi-specific anti-LRP6 antibodies. Binding of E34N19 scFv-Fc, E34N19 IgG, H/6 TaFv-Fc, 6/H bsIgG, or H3 IgG (each 100 nM) to HEK293 cells originally expressing ALCAM was analyzed by flow cytometry. […]
The apparent antibody binding affinity was measured on target cells by FACS as described (An, Zhu). […] After 1 hr incubation, cells were washed and analyzed by FACS as described above. The apparent KD was determined by a curve fit method using MFI values as described (Benedict, An, Zhu).
A general note: Flow cytometry measures light scatter and fluorescence of single cells or particles in a stream.

For assay [3], the target named is T2, Activated leukocyte cell adhesion molecule (ALCAM), on cells (human, UniProt Q13740 28-583).
T2 construct: whole, on cells; also called guide antigen
T2 sequence (looked up): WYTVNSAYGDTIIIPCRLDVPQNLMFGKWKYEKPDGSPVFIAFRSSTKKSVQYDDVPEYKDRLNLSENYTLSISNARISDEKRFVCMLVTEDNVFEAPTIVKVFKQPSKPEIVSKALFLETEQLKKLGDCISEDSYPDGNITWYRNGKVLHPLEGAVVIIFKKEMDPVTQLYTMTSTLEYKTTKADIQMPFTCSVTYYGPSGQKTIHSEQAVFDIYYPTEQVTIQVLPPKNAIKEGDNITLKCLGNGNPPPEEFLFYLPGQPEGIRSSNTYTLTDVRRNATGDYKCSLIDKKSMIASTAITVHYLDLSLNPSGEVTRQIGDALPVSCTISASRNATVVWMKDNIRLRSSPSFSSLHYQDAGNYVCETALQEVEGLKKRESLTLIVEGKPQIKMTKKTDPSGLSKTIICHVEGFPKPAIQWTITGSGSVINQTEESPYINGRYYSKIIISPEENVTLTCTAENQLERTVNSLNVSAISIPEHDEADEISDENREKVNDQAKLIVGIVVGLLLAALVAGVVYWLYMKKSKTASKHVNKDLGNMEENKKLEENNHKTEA
Put plainly: apparent KD on cells.

The target of assay [4] is Low-density lipoprotein receptor-related protein 6 (LRP6), human, on cells (human) (UniProt O75581). Put plainly: cell-based or functional assay.
Assay [5] addresses T3, Ephrin type-A receptor 2 (EphA2), human, on cells (human, UniProt P29317 24-976).
T3 construct: whole, on cells; also called guide antigen
Put plainly: FACS.

Assay [6] addresses T4, EphA2, murine, on CT26 cells (mouse, UniProt Q03145 26-977).
T4 construct: whole, on cells; also called murine antigen
Put plainly: FACS on murine colon cancer cell line CT26 that expresses EphA2.

Values joined by “and” are separate entries in the source; they are usually repeats but may differ in a detail not shown here. Equal values may be shown once.

This note sets out measurements from patent US20190330365A1 (University of California, published 2019).

T1 sequence (O75581 20-1613): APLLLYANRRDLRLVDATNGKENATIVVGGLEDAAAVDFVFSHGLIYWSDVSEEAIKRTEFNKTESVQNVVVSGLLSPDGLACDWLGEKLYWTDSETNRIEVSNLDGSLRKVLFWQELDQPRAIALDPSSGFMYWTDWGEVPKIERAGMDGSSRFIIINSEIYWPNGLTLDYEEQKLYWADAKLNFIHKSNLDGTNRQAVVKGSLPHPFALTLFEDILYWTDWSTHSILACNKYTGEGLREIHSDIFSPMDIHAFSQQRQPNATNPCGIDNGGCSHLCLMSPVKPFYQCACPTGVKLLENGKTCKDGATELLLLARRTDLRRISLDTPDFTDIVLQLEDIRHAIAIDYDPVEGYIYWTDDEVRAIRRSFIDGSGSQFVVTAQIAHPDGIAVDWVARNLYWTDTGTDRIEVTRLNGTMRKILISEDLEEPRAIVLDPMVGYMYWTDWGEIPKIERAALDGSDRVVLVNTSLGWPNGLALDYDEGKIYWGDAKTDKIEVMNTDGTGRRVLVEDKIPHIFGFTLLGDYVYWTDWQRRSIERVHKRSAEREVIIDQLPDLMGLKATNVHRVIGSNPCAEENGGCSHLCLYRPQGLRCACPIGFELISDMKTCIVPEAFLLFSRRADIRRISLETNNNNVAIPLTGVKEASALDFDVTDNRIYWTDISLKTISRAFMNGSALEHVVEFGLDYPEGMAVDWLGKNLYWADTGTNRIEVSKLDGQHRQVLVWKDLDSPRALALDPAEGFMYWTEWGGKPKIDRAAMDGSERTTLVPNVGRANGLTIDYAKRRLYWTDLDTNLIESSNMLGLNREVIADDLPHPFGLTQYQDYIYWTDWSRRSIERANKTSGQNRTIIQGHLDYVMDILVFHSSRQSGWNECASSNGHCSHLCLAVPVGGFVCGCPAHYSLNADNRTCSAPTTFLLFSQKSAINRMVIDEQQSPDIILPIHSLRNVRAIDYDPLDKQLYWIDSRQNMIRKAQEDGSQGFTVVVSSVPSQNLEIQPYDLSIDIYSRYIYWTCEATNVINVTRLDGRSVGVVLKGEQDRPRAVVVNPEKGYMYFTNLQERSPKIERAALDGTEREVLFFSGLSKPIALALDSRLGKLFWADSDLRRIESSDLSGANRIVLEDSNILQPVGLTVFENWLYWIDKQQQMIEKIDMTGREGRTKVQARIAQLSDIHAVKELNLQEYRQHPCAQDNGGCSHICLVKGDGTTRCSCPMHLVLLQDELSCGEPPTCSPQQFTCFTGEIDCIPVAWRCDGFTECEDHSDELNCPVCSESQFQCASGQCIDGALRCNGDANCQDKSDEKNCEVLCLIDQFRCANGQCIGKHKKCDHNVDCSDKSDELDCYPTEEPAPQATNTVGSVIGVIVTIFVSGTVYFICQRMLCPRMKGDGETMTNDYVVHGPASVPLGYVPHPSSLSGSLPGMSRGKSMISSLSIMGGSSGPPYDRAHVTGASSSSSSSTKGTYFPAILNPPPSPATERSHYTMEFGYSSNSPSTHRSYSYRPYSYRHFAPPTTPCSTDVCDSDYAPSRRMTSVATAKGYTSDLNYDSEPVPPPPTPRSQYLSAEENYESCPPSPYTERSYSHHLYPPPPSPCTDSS
T4 sequence (Q03145 26-977): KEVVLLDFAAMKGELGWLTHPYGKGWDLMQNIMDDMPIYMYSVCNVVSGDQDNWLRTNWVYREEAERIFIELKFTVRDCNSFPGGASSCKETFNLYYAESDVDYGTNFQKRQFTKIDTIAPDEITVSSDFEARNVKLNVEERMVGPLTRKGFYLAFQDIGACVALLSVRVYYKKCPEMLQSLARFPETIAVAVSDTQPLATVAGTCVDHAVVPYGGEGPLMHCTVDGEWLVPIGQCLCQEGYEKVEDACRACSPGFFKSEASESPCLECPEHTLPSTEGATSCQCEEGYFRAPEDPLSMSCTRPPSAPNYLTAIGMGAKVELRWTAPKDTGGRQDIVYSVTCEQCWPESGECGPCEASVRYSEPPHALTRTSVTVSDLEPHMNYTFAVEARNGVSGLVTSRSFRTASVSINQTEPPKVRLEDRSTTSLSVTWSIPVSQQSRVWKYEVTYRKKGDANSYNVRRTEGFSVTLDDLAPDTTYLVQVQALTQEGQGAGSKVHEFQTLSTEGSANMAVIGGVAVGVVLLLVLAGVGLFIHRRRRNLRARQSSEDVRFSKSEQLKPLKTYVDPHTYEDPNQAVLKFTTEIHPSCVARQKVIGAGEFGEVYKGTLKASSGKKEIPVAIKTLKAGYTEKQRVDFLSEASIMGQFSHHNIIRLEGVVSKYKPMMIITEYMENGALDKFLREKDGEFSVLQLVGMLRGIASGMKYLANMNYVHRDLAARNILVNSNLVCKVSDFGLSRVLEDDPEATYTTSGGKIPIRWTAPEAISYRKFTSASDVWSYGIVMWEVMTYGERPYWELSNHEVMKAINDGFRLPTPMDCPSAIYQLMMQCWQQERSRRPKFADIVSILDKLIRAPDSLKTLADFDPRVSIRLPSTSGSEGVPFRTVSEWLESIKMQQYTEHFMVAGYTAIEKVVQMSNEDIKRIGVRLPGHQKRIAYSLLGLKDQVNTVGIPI
T3 sequence (P29317 24-976): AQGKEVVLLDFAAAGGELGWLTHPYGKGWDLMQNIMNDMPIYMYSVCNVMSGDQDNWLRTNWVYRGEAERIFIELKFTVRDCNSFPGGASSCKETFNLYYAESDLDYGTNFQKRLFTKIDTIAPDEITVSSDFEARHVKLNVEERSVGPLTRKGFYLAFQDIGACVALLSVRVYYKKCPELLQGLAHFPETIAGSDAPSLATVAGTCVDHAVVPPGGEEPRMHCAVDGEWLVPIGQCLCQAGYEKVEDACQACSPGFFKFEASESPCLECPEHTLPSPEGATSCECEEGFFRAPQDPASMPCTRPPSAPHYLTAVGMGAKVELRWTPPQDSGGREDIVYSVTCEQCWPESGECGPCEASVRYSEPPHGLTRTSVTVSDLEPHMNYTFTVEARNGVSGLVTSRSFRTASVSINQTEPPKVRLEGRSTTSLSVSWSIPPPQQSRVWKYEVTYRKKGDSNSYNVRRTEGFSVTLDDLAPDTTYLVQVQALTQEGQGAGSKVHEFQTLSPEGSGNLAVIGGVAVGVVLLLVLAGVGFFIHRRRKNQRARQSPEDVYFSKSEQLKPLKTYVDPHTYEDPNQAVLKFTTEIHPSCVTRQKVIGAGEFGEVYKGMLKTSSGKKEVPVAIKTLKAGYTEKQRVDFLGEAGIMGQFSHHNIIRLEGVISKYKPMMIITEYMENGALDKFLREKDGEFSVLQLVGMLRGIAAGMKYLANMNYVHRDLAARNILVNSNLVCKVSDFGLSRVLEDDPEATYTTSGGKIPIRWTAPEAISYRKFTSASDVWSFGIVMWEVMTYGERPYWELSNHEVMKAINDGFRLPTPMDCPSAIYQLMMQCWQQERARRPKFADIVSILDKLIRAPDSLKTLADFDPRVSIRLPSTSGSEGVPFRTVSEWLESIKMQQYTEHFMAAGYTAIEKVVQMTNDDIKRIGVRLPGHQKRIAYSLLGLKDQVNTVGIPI
Chain of Low-density lipoprotein receptor-related protein 6 (LRP6), human, on cells (human) (O75581 20-1613): as the sequence (O75581 20-1613) above

B1: E34N19 scFv-Fc (Fc fusion)
scFv: QVNLRESGGGLVQPGGSLRLSCAASGFTFSSYAMSWVRQAPGKGLEWVSAISGSGGSTYYADSVKGRFTISRDNSKNTLYLQMNSLRAEDTAVYYCAKVRGHGGNSGWVDYWGQGTLVTVSSGGGGSGGGGSGGGGSQSVLTQDPAVSVALGQTVKITCQGDSLRTYYTSWYQQRPGQAPILVLYANTHRPSSIPDRFSGSSSGTTASLTITGAQAEDEADYYCNSRDSSGNYLFGGGTKLTVL
notes: scFv gene cloned into unmodified pFUSE-hIgG1-Fc2; In some assays biotin-labelled as the detection reagent; also called monospecific E34N19; anti-effector mAb E34N19; not shown: human IgG1 Fc of vector pFUSE-hIgG1-Fc2 (InvivoGen)
On to B1, for which, in assay [1], the “EC50 (so in the source), STF reporter, Wnt3a, HEK293” value stood at 3.02 nM; the “IC50, STF reporter, Wnt3a-transfected HEK293” value was ~3 nM and 3.43 nM. Also, in assay [2], the Kd was ~1.4 nM.

B2: E12N21 scFv-Fc (Fc fusion)
scFv: QVQLQESGGGLVKPGGSLRLSCAASGFTFSSYWMSWVRQAPGKGLEWVANIKQDGSEKYYVDSVKGRFTISRDNSKNTLYLQMNSLRAEDTAIYYCAKTMTASAWLGGGRDSWGQGTLVTVSSGGGGSGGGGSGGGGSQSVLTQDPAVSVALGQTVRITCQGDSLRTLSTNWYQQKSGQAPVLVIYGNSNRPSGVPDRFSGSSSGNTASLTITGAQAEDEADYYCQSYDNSVRGSRVFGTGTKLTVL
notes: scFv gene cloned into unmodified pFUSE-hIgG1-Fc2; also called monoclonal E12N21; not shown: human IgG1 Fc of vector pFUSE-hIgG1-Fc2 (InvivoGen)
For B2, in assay [1], the “IC50, STF reporter, Wnt1-transfected HEK293” value was ~3.5 nM and the “IC50, Wnt1-induced STF reporter activity, HEK293” value came to 2.63 nM. Further, the Kd in assay [2] is ~5.2 nM.

B3: PD32 (anti-ALCAM guide antibody, format not stated) (antibody, V domains shown)
VH: QVQLQESGGGLVQPGGSLRLSCAASGFTFSSYALSWVRQAPGKGLEWVSAISGSGGSTYYAGSVKGRFTISRDNSKNTLYLQMNSLRAEDTAVYYCAKGLIASHWGQGTLVTVSS
VL: SELTQDPAVSVALGQTVRITCQGDSLRSYYASWYQQKPGQAPVLVIYGKNNRPSGIPDRFSGSSSGNTASLTITGAQAEDEADYYCNSRDSSGIHLVFGGGTKLTVL
notes: Called 'guide antibody' and 'corresponding mAbs'; also called GPD32
Regarding B3, in assay [3], the Kd came out at 0.388 nM.

B4: E34N19/H3 bsIgG (bispecific antibody, part only; not given: constant regions and CL-scFv linker, not shown: another chain or arm of the molecule; a dimerising Fc or GST; small tags and cut ends)
VH: QVNLRESGGGLVQPGGSLRLSCAASGFTFSSYAMSWVRQAPGKGLEWVSAISGSGGSTYYADSVKGRFTISRDNSKNTLYLQMNSLRAEDTAVYYCAKVRGHGGNSGWVDYWGQGTLVTVSS
VL: QSVLTQDPAVSVALGQTVKITCQGDSLRTYYTSWYQQRPGQAPILVLYANTHRPSSIPDRFSGSSSGTTASLTITGAQAEDEADYYCNSRDSSGNYLFGGGTKLTVL
scFv: QVQLVESGGGLVQPGGSLRLSCAASGFTFSSYAMSWVRQAPGKGLEWVSAISGSGGSTYYADSVKGRFTISRDNSKDTLYLQMNSLRAEDTAVYYCASRSLLDYWGQGTLVTVSSGGGGSGGGGSGGGGSNFMLTQNPAVSVALGQTVRITCQGDSLRSYYASWYQQKPGQAPLLVIYGKNNRPSGIPDRFSGSSSGNTASLTITGAQAEDEADYYCNSRDSSGNPVFGGGTKVTVL
Molecule B4 gave an IC50, STF reporter, Wnt3a-transfected HEK293 in assay [4] of 0.0446 nM.

B5: E34N19 IgG (antibody, V domains shown)
VH: QVNLRESGGGLVQPGGSLRLSCAASGFTFSSYAMSWVRQAPGKGLEWVSAISGSGGSTYYADSVKGRFTISRDNSKNTLYLQMNSLRAEDTAVYYCAKVRGHGGNSGWVDYWGQGTLVTVSS
VL: QSVLTQDPAVSVALGQTVKITCQGDSLRTYYTSWYQQRPGQAPILVLYANTHRPSSIPDRFSGSSSGTTASLTITGAQAEDEADYYCNSRDSSGNYLFGGGTKLTVL
Turning to B5, the “IC50, STF reporter, Wnt3a-transfected HEK293” value in assay [1] was determined as 5.2 nM.

B6: RYR (anti-EphA2 guide antibody, format not stated) (antibody, V domains shown)
VH: QVQLQESGGGLVQPGGSLRLSCAASGFTFSSYSMNWVRQAPGKGLEWVSYISSSSSTIYYADSVKGRFTISRDNAKNSLYLQMNSLRAEDTAVYYCARYRLPDFWSGYPNYGMDVWGQGTTVTVSS
VL: QSVLTQPPSVSGAPGQRVTISCTGSSSNIGAGYDVHWYQQLPGTAPKLLIYGNSNRPSGVPDRFSGSKSGTSASLAITGLQAEDEADYYCQSYDSSLSGHVVFGGGTKLTVL
notes: also called HCA-F1
For the molecule B6, the binding result in assay [5] and in assay [6] was “binds” in each case.

B7: H3 IgG (antibody, V domains shown)
VH: QVQLVESGGGLVQPGGSLRLSCAASGFTFSSYAMSWVRQAPGKGLEWVSAISGSGGSTYYADSVKGRFTISRDNSKDTLYLQMNSLRAEDTAVYYCASRSLLDYWGQGTLVTVSS
VL: NFMLTQNPAVSVALGQTVRITCQGDSLRSYYASWYQQKPGQAPLLVIYGKNNRPSGIPDRFSGSSSGNTASLTITGAQAEDEADYYCNSRDSSGNPVFGGGTKVTVL
notes: IgG; also called anti-ALCAM H3 IgG; guide antibody H3
Turning to B7, in assay [3], the Kd was found to be 0.00734 nM.
